Experimental data from patent US20030236190A1 (published 2003).
Positions of bridges follow the written chain, without caps; N, C: chain ends. No end group written: not given here.

B1: H2CA-4-G9-IGFR (peptide)
peptide: GIISQSCPESFYDWFAGQVSDPWWCW
B2: A6L-0-E6-IR (peptide)
peptide: YRGMLVLGRSSDGAGKVAFERPARIGQTVFAVNFYDWFV
B3: 20C-3-E4-IGFR (peptide)
peptide: FFYRCLSRLLGGQLGSRLGLSCIGD
modifications: disulfide 5-22 (inferred)
B4: 20E2A-3-D10-IGFR (peptide)
peptide: MMVVDGFYDALHQLVVAQSLG
B5: B6Hα-3-E7-IR (peptide)
peptide: GCAVVEEAERSRGDPFYHKLSELIQGC
modifications: disulfide 2-27 (inferred)
B6: NNRPγ-4-A1-IR (peptide)
peptide: IIGGFYSYFNSVLRLGT
B7: B6Eα-2-C10-IR (peptide)
peptide: SGAKVIVVTGDSGDPFYHKLSELLQGS
B8: 20E2A-3-A12-IGFR (peptide)
peptide: LSVALSFYDALGQLVAGEGRW
B9: 20E2B-2-88-IGFR (peptide)
peptide: IWATGDFYRLLSQLVMGRVGT
B10: NNRPγ-4-A7-IR (peptide)
peptide: RFDPFYSYFVNLLGASA
B11: H6Hα-4-G8-IR (peptide)
peptide: GGTKAVAKVGTRDDPFYHKLSELLQGS
B12: B6L-4-D7-IR (peptide)
peptide: AETSVQVGWIRLQSVWPGEHWNTVDPFYHKLSELLRGSGA
B13: NNRPy-4-A9-IR (peptide)
peptide: EGSGFYGYFFSLLGLQG
B14: 26Hα-3-E8-IR (peptide)
peptide: RGKTAAVIVGRPADPFYHKLSELLQGG
B15: B6Hα-3-F7-IR (peptide)
peptide: SRVAATKEKRPSDDPFYHKLSELLQGS
B16: 20E2B-4-H8-IGFR (peptide)
peptide: PAGPCGFYCGLGLLLHGDQSP
modifications: disulfide 5-9 (inferred)
B17: B6Hα-2-D6-IR (peptide)
peptide: GRTMAVMAAGGPDDPFYHKLSELVQGG
B18: B6Hα-2-D1-IR (peptide)
peptide: GCEVIVEEGDSADPFYHKLSELCQGS
modifications: disulfide 2-23 (inferred)
B19: 20E2B-4-G11-IGFR (peptide)
peptide: RQGTGSFYLMLEQLLVGARGP
B20: 20E2B-3-C4-1GFR (peptide)
peptide: ASSASGFYELLQRLAGLGLEV
B21: 20E22-1-A8-IGFR (peptide)
peptide: TLRSPTFYDWLEMVLTHGQGG
B22: 20E28-3-D6-IGFR (peptide)
peptide: DSVGDNFYQLLESLVGGHGVG
B23: 20E2A-3-C7-IGFR (peptide)
peptide: VGTVAGFYDAIAQLVARASRV
B24: B6Hα-1-A3-IR (peptide)
peptide: SRAKVEAEMPDSGDPFYHKLSELLASG
B25: 20E2B-4-E9-IGFR (peptide)
peptide: RCQGTGFYTCIQELIGFGDPD
modifications: disulfide 2-10 (inferred)
B26: B6Hα-3-F10-IR (peptide)
peptide: GCVVEWQKWHGASDPFYHKLSELGGCS
modifications: disulfide 2-26 (inferred)
B27: B6Hα-2-C7-IR (peptide)
peptide: RGIVAMVEATEVGSDHDPFYHKLSELVQGS
B28: 20E2B-2-B7-IGFR (peptide)
peptide: LSSDGQFYRALNLLLQGSAGR

Target: T1, Insulin receptor prepared according to Bass et al., 1996: soluble human insulin receptor-immunoglobulin heavy … (human, UniProt P06213 28-956)
T1 construct: extracellular domain; Eu3+-labelled in TR-FRET; also called IR; sIR-Fc; not shown: immunoglobulin heavy chain constant domains that replace the transmembrane and i
Assay: phage ELISA vs milk

Ratio over Background [fold] | Binder
0.6 | B1
1.8 | B2
1.3 | B3
1.8 | B4
1.3 | B5
1.8 | B6
1.1 | B7
1.1 | B8
0.8 | B9
1.3 | B10
1.7 | B11
1.4 | B12
1.4 | B13
1.1 | B14
1 | B15
0.9 | B16
1 | B17
1.3 | B18
0.6 | B19
3.3 | B20
0.9 | B21
2.6 | B22
1.1 | B23
0.8 | B24
0.9 | B25
1.9 | B26
1 | B27
0.9 | B28

Target: T2, Soluble IGF-1R (R&D Systems, Cat. # 391-GR/CF); recombinant human IGF-1R (human, UniProt P08069 31-935)
T2 construct: extracellular domain; Eu3+-labelled in the TR-FRET assays; also called sIGF-1R; rhIGF-1R
Assay: phage ELISA vs milk

Ratio over Background [fold] | Binder
9.5 | B1
31 | B2
7.7 | B3
6.9 | B4
5.6 | B5
10.9 | B6
5.8 | B7
4.3 | B8
5.7 | B9
6.3 | B10
6.1 | B11
4.8 | B12
10 | B13
5.3 | B14
3.1 | B15
5.3 | B16
4.4 | B17
5.4 | B18
4.5 | B19
20.4 | B20
4.4 | B21
17.8 | B22
5.4 | B23
2.6 | B24
5.2 | B25
8.8 | B26
6.7 | B27
6.1 | B28

Target: T1, Insulin receptor prepared according to …
Assay: phage ELISA, vs IGF-1R

IR/IGF-1R Comparison [ratio] | Binder
0.1 | B1
0.1 | B2
0.2 | B3
0.3 | B4
0.2 | B5
0.2 | B6
0.2 | B7
0.3 | B8
0.1 | B9
0.2 | B10
0.3 | B11
0.3 | B12
0.1 | B13
0.2 | B14
0.3 | B15
0.2 | B16
0.2 | B17
0.2 | B18
0.1 | B19
0.2 | B20
0.2 | B21
0.1 | B22
0.2 | B23
0.3 | B24
0.2 | B25
0.2 | B26
0.1 | B27
0.1 | B28

Target: T2, Soluble IGF-1R (R&D Systems, Cat. # …)
Assay: phage ELISA, vs IR

IGF-1R/IR Comparison [ratio] | Binder
16 | B1
17 | B2
6 | B3
3.9 | B4
4.3 | B5
6 | B6
5.3 | B7
3.9 | B8
7.2 | B9
4.9 | B10
3.6 | B11
3.4 | B12
7.1 | B13
4.8 | B14
3.1 | B15
5.9 | B16
4.4 | B17
4.2 | B18
7 | B19
6.2 | B20
5 | B21
6.9 | B22
5.1 | B23
3.3 | B24
5.6 | B25
4.6 | B26
6.7 | B27
6.7 | B28
